In paper PMC5214978 (Structure (London, England : 1993), 2016):
“And” between values parts separate entries of the source, which are not always exact repeats. Equal values may be shown once.

Target: the molecule itself
Assay: cross-linking

B1: Anion exchanger 1 (AE1) (natural protein, human (endogenous in erythrocytes), UniProt P02730 1-911, looked up)
chain: MEELQDDYEDMMEENLEQEEYEDPDIPESQMEEPAAHDTEATATDYHTTSHPGTHKVYVELQELVMDEKNQELRWMEAARWVQLEENLGENGAWGRPHLSHLTFWSLLELRRVFTKGTVLLDLQETSLAGVANQLLDRFIFEDQIRPQDREELLRALLLKHSHAGELEALGGVKPAVLTRSGDPSQPLLPQHSSLETQLFCEQGDGGTEGHSPSGILEKIPPDSEATLVLVGRADFLEQPVLGFVRLQEAAELEAVELPVPIRFLFVLLGPEAPHIDYTQLGRAAATLMSERVFRIDAYMAQSRGELLHSLEGFLDCSLVLPPTDAPSEQALLSLVPVQRELLRRRYQSSPAKPDSSFYKGLDLNGGPDDPLQQTGQLFGGLVRDIRRRYPYYLSDITDAFSPQVLAAVIFIYFAALSPAITFGGLLGEKTRNQMGVSELLISTAVQGILFALLGAQPLLVVGFSGPLLVFEEAFFSFCETNGLEYIVGRVWIGFWLILLVVLVVAFEGSFLVRFISRYTQEIFSFLISLIFIYETFSKLIKIFQDHPLQKTYNYNVLMVPKPQGPLPNTALLSLVLMAGTFFFAMMLRKFKNSSYFPGKLRRVIGDFGVPISILIMVLVDFFIQDTYTQKLSVPDGFKVSNSSARGWVIHPLGLRSEFPIWMMFASALPALLVFILIFLESQITTLIVSKPERKMVKGSGFHLDLLLVVGMGGVAALFGMPWLSATTVRSVTHANALTVMGKASTPGAAAQIQEVKEQRISGLLVAVLVGLSILMEPILSRIPLAVLFGIFLYMGVTSLSGIQLFDRILLLFKPPKYHPDVPYVKRVKTWRMHLFTGIQIICLAVLWVVKSTPASLALPFVLILTVPLRRVLLPLIFRNVELQCLDADDAKATFDEEEGRDEYDEVAMPV
modifications: extensive and variable glycosylation (sites not given)
stoichiometry N: 2 and 4
